{"source": "patent EP4740966A1", "experiment_in_all_cases": "co-expression of chains A and B 1:1 in HEK293, Protein A, non-reduced SDS-PAGE band intensity", "key": {"[1]": {"target": "Human IgG1-Fc, chain B with D356C+T366S+L368A+Y407V (human) [IgG part: P0DOX5]"}, "[2]": {"target": "Human IgG1-Fc, chain B with D356C+T366S+L368A+Y407V (human) [IgG part: P0DOX5]", "remark": "listed apart in the source"}, "[3]": {"target": "Human IgG1-Fc, chain B with D356C+T366S+L368A+Y407V+F405K (human) [IgG part: P0DOX5]"}, "[4]": {"target": "Human IgG1-Fc, chain B with D356C+T366S+L368A+Y407V+F405K (human) [IgG part: P0DOX5]", "remark": "listed apart in the source"}, "[5]": {"target": "Human IgG1-Fc, chain B with D356C+T366S+L368A+Y407V+F405K+K360E+Q347E (human) [IgG part: P0DOX5]"}, "[6]": {"target": "Human IgG1-Fc, chain B with D356C+T366S+L368A+Y407V+F405K+Q347R (human) [IgG part: P0DOX5]"}, "[7]": {"target": "Human IgG1-Fc, chain B with D356C+T366S+L368A+Y407V+K360E+Q347E (human) [IgG part: P0DOX5]"}, "[8]": {"target": "Human IgG1-Fc, chain B with D356C+T366S+L368A+Y407V+Q347R (human) [IgG part: P0DOX5]"}, "[9]": {"target": "ScFv-Fc fusion protein (anti-Her2 single chain antibody-Fc), chain A with Y349C+T366W"}, "[10]": {"target": "ScFv-Fc fusion protein, chain A with T366W+F405K"}, "[11]": {"target": "ScFv-Fc fusion protein, chain A with T366W+F405K+D399S"}, "[12]": {"target": "ScFv-Fc fusion protein, chain A with T366W+F405K+Y349D+S354D"}, "[13]": {"target": "ScFv-Fc fusion protein, chain A with T366W+K409A"}, "[14]": {"target": "ScFv-Fc fusion protein, chain A with T366W+K409A+K392D"}, "[15]": {"target": "ScFv-Fc fusion protein, chain A with T366W+K409A+Y349D"}, "[16]": {"target": "ScFv-Fc fusion protein, chain A with T366W+K409A+Y349D+S354D"}, "[17]": {"target": "ScFv-Fc fusion protein, chain A with Y349C+T366W+F405K"}, "[18]": {"target": "ScFv-Fc fusion protein, chain A with Y349C+T366W+F405K", "remark": "listed apart in the source"}, "[19]": {"target": "ScFv-Fc fusion protein, chain A with Y349C+T366W+F405K", "remark": "listed apart in the source"}, "[20]": {"target": "ScFv-Fc fusion protein, chain A with Y349C+T366W+F405K+K360E+Q347E"}, "[21]": {"target": "ScFv-Fc fusion protein, chain A with Y349C+T366W+F405K+Q347R"}, "[22]": {"target": "ScFv-Fc fusion protein, chain A with Y349C+T366W+K409A"}, "[23]": {"target": "ScFv-Fc fusion protein, chain A with Y349C+T366W+K409A", "remark": "listed apart in the source"}, "[24]": {"target": "ScFv-Fc fusion protein, chain A with Y349C+T366W+K409A", "remark": "listed apart in the source"}, "[25]": {"target": "ScFv-Fc fusion protein, chain A with Y349C+T366W+K409A+K360E+Q347E"}, "[26]": {"target": "ScFv-Fc fusion protein, chain A with Y349C+T366W+K409A+Q347R"}, "[27]": {"target": "ScFv-Fc fusion protein, chain A with Y349C+T366W+K409E"}, "[28]": {"target": "VhH-Fc fusion protein (camel single domain antibody variable region-Fc), chain B with D356C+T366S+L368A+Y407V+F405K"}, "[29]": {"target": "VhH-Fc fusion protein, chain B with D356C+T366S+L368A+Y407V"}, "[30]": {"target": "VhH-Fc fusion protein, chain B with T366S+L368A+Y407V+D399S+F405K"}, "[31]": {"target": "VhH-Fc fusion protein, chain B with T366S+L368A+Y407V+K409A+E357A"}, "[32]": {"target": "VhH-Fc fusion protein, chain B with T366S+L368A+Y407V+K409A+K392D"}, "[33]": {"target": "VhH-Fc fusion protein, chain B with T366S+L368G+Y407A+K409A"}}, "note": "Values joined by “and” are separate entries in the source; they are usually repeats but may differ in a detail not shown here. Identical values can stand only once. Like-named read-outs stand apart in the source and are kept apart here."}
{"substance": "Human IgG1-Fc, chain B with D356C+T366S+L368A+Y407V (from UniProt P0DOX5 223-449)", "values": [{"measurement": "Fc homodimer (%)", "setting": "[1]", "result": 23, "unit": "%"}, {"measurement": "Fc homodimer (%)", "setting": "[2]", "result": 20, "unit": "%"}]}
{"substance": "Human IgG1-Fc, chain B with D356C+T366S+L368A+Y407V+F405K (from UniProt P0DOX5 223-449)", "values": [{"measurement": "Fc homodimer (%)", "setting": "[3]", "result": 10, "unit": "%"}, {"measurement": "Fc homodimer (%)", "setting": "[4]", "result": "18% and 13%"}]}
{"substance": "Human IgG1-Fc, chain B with D356C+T366S+L368A+Y407V+F405K+K360E+Q347E (from UniProt P0DOX5 223-449)", "values": [{"measurement": "Fc homodimer (%)", "setting": "[5]", "result": 8, "unit": "%"}]}
{"substance": "Human IgG1-Fc, chain B with D356C+T366S+L368A+Y407V+F405K+Q347R (from UniProt P0DOX5 223-449)", "values": [{"measurement": "Fc homodimer (%)", "setting": "[6]", "result": 12, "unit": "%"}]}
{"substance": "Human IgG1-Fc, chain B with D356C+T366S+L368A+Y407V+K360E+Q347E (from UniProt P0DOX5 223-449)", "values": [{"measurement": "Fc homodimer (%)", "setting": "[7]", "result": 24, "unit": "%"}]}
{"substance": "Human IgG1-Fc, chain B with D356C+T366S+L368A+Y407V+Q347R (from UniProt P0DOX5 223-449)", "values": [{"measurement": "Fc homodimer (%)", "setting": "[8]", "result": 14, "unit": "%"}]}
{"substance": "ScFv-Fc fusion protein (anti-Her2 single chain antibody-Fc), chain A with Y349C+T366W", "values": [{"measurement": "ScFv-Fc homodimer (%)", "setting": "[9]", "result": "29% and 24%"}]}
{"substance": "ScFv-Fc fusion protein, chain A with T366W+F405K", "values": [{"measurement": "ScFv-Fc homodimer (%)", "setting": "[10]", "result": 5, "unit": "%"}]}
{"substance": "ScFv-Fc fusion protein, chain A with T366W+F405K+D399S", "values": [{"measurement": "ScFv-Fc homodimer (%)", "setting": "[11]", "result": 6, "unit": "%"}]}
{"substance": "ScFv-Fc fusion protein, chain A with T366W+F405K+Y349D+S354D", "values": [{"measurement": "ScFv-Fc homodimer (%)", "setting": "[12]", "result": 9, "unit": "%"}]}
{"substance": "ScFv-Fc fusion protein, chain A with T366W+K409A", "values": [{"measurement": "ScFv-Fc homodimer (%)", "setting": "[13]", "result": 15, "unit": "%"}]}
{"substance": "ScFv-Fc fusion protein, chain A with T366W+K409A+K392D", "values": [{"measurement": "ScFv-Fc homodimer (%)", "setting": "[14]", "result": 7, "unit": "%"}]}
{"substance": "ScFv-Fc fusion protein, chain A with T366W+K409A+Y349D", "values": [{"measurement": "ScFv-Fc homodimer (%)", "setting": "[15]", "result": 14, "unit": "%"}]}
{"substance": "ScFv-Fc fusion protein, chain A with T366W+K409A+Y349D+S354D", "values": [{"measurement": "ScFv-Fc homodimer (%)", "setting": "[16]", "result": 10, "unit": "%"}]}
{"substance": "ScFv-Fc fusion protein, chain A with Y349C+T366W+F405K", "values": [{"measurement": "ScFv-Fc homodimer (%)", "setting": "[17]", "result": 9, "unit": "%"}, {"measurement": "ScFv-Fc homodimer (%)", "setting": "[18]", "result": 17, "unit": "%"}, {"measurement": "ScFv-Fc homodimer (%)", "setting": "[19]", "result": 10, "unit": "%"}]}
{"substance": "ScFv-Fc fusion protein, chain A with Y349C+T366W+F405K+K360E+Q347E", "values": [{"measurement": "ScFv-Fc homodimer (%)", "setting": "[20]", "result": 14, "unit": "%"}]}
{"substance": "ScFv-Fc fusion protein, chain A with Y349C+T366W+F405K+Q347R", "values": [{"measurement": "ScFv-Fc homodimer (%)", "setting": "[21]", "result": 14, "unit": "%"}]}
{"substance": "ScFv-Fc fusion protein, chain A with Y349C+T366W+K409A", "values": [{"measurement": "ScFv-Fc homodimer (%)", "setting": "[22]", "result": 21, "unit": "%"}, {"measurement": "ScFv-Fc homodimer (%)", "setting": "[23]", "result": 10, "unit": "%"}, {"measurement": "ScFv-Fc homodimer (%)", "setting": "[24]", "result": 13, "unit": "%"}]}
{"substance": "ScFv-Fc fusion protein, chain A with Y349C+T366W+K409A+K360E+Q347E", "values": [{"measurement": "ScFv-Fc homodimer (%)", "setting": "[25]", "result": 24, "unit": "%"}]}
{"substance": "ScFv-Fc fusion protein, chain A with Y349C+T366W+K409A+Q347R", "values": [{"measurement": "ScFv-Fc homodimer (%)", "setting": "[26]", "result": 21, "unit": "%"}]}
{"substance": "ScFv-Fc fusion protein, chain A with Y349C+T366W+K409E", "values": [{"measurement": "ScFv-Fc homodimer (%)", "setting": "[27]", "result": 25, "unit": "%"}]}
{"substance": "VhH-Fc fusion protein (camel single domain antibody variable region-Fc), chain B with D356C+T366S+L368A+Y407V+F405K", "values": [{"measurement": "VhH-Fc homodimer (%)", "setting": "[28]", "result": 19, "unit": "%"}]}
{"substance": "VhH-Fc fusion protein, chain B with D356C+T366S+L368A+Y407V", "values": [{"measurement": "VhH-Fc homodimer (%)", "setting": "[29]", "result": 27, "unit": "%"}]}
{"substance": "VhH-Fc fusion protein, chain B with T366S+L368A+Y407V+D399S+F405K", "values": [{"measurement": "VhH-Fc homodimer (%)", "setting": "[30]", "result": 13, "unit": "%"}]}
{"substance": "VhH-Fc fusion protein, chain B with T366S+L368A+Y407V+K409A+E357A", "values": [{"measurement": "VhH-Fc homodimer (%)", "setting": "[31]", "result": 7, "unit": "%"}]}
{"substance": "VhH-Fc fusion protein, chain B with T366S+L368A+Y407V+K409A+K392D", "values": [{"measurement": "VhH-Fc homodimer (%)", "setting": "[32]", "result": 13, "unit": "%"}]}
{"substance": "VhH-Fc fusion protein, chain B with T366S+L368G+Y407A+K409A", "values": [{"measurement": "VhH-Fc homodimer (%)", "setting": "[33]", "result": 7, "unit": "%"}]}
